Values quoted from earlier work in US20260069559A1, “COMBINATIONS OF RXFP1 MODULATORS AND SGLT2 INHIBITORS” (ASTRAZENECA AB, priority 2022, published 2026).

Conditions: after receiving serelaxin intravenously; fraction of patients

Q: With serelaxin as the substance, how does the “patients who experienced a significant blood pressure drop (>40 mm Hg)” value read?
A: The value was “approximately one third”.
